Experiments:
[1] = tested on: HER3 phosphorylation in MCF7 cells; test: Phospho-HER3 in vitro cell assay, neuregulin stimulated MCF7 cells; assay type: cell-based, human; details: both ligand-dependent and ligand-independent manner; summary of cell signaling assays
Experimental: MCF-7 cells were routinely maintained in DMEM/F12, 15 mM HEPES, L-glutamine, 10% FCS and SK-Br-3 in McCoy's 5a, 10% FCS, 1.5 mM L-glutamine. Sub-confluent MCF7 or SK-Br-3 cells grown in complete media were harvested with accutase (PAA Laboratories) and resuspended in the appropriate growth media at a final concentration of […]. 100 μL of cell suspension was then added to each well of a 96-well flat bottomed plate (Nunc) to give a final density of 5×10^4 cells/well. MCF7 cells were allowed to attach for approximately 3 hours before the media was exchanged for starvation media containing 0.5% FBS. All plates were then incubated overnight at 37° C. prior to treatment with the appropriate concentration of HER3 antibodies (diluted in the appropriate media) for 80 minutes at 37° C. MCF7 cells were treated with 50 ng/mL neuregulin 1-β1 EGF domain (R&D Systems) for the final 20 minutes to stimulate HER3 phosphorylation. All media was gently aspirated and the cells washed with ice-cold PBS containing 1 mM CaCl2) and 0.5 mM MgCl2 (Gibco). The cells were lysed by adding 50 μL ice-cold lysis buffer (20 mM Tris (pH8.0)/137 mM NaCl/10% Glycerol/2 mM EDTA/1% NP-40/1 mM sodium orthovanadate/, Aprotinin (10 μg/mL)/Leupeptin (10 μg/mL)) and incubated on ice with shaking for 30 minutes. Lysates were then collected and spun at 1800 g for 15 minutes at 4° C. to remove cell debris. 20 μL of lysate was added to a pre-prepared capture plate.
HER3 was captured from the lysate by incubating the plate at room temperature for one hour with shaking before the lysate was aspirated and the wells washed with 1× Tris buffer (Mesoscale Discovery)/0.1% Tween-20. Phosphorylated HER3 was detected using 0.75 μg/mL biotinylated anti-phosphotyrosine antibody (R&D Systems) prepared in 1% BSA/1× Tris/0.1% Tween-20 by incubating with shaking at room temperature for 1 hour. The wells were washed four times with 1× Tris/0.1% Tween-20 and biotinylated proteins were detected by incubating with S-Tag labelled Streptavidin (Mesoscale Discovery) diluted in 1% BSA/1× Tris/0.1% Tween-20 for one hour at room temperature. Each well was aspirated and washed four times with 1× Tris/0.1% Tween-20 before adding 20 μL of Read buffer T with surfactant (Mesoscale Discovery) and the signal quantified using a Mesoscale Sector Imager. Antibodies MOR06391 or MOR03207 were included in signalling experiments as isotype controls.

BxPC3 tumors = test: In vivo BxPC3 efficacy studies; design: species or system female athymic nu/nu Balb/C mice; details: BxPC3 tumor growth model
Experimental: BxPC3 cells were cultured in RPMI-1640 medium containing 10% heat-inactivated fetal bovine serum without antibiotics until the time of implantation.
Female athymic nu/nu Balb/C mice (Harlan Laboratories) were implanted subcutaneously with 10×10^6 cells in a mixture of 50% phosphate buffered saline with 50% matrigel. The total injection volume containing cells in suspension was 200 μL. Once tumors had reached approximately 200 mm^3 in size, animals were enrolled in the efficacy study. In general, a total of 10 animals per group were enrolled in studies.
Animals were dosed intravenously via lateral tail vein injection. An initial loading dose of 40 mg/kg was given for the first dose. After the initial dose, animals were on a 20 mg/kg, every other day schedule for the duration of the study (25 days under treatment). Tumor volume and T/C values were calculated as previously detailed.

BT-474 xenografts = test: In vivo BT-474 efficacy studies; design: species or system female athymic nu/nu Balb/C mice; details: antibody 20 mg/kg in combination with sub-optimal trastuzumab 1 mg/kg
Experimental: BT-474 cells were cultured in DMEM containing 10% heat-inactivated fetal bovine serum without antibiotics until the time of implantation.
One day before cell inoculation, female athymic nu/nu Balb/C mice (Harlan Laboratories) were implanted subcutaneously with a sustained release 17β-estradiol pellet (Innovative Research of America) to maintain serum estrogen levels. One day after 17β-estradiol pellet implantation, 5×10^6 cells were injected orthotopically into the 4th mammary fatpad in a suspension containing 50% phenol red-free matrigel (BD Biosciences) in Hank's balanced salt solution. The total injection volume containing cells in suspension was 200 μL. 20 days following cell implantation animals with a tumor volume of approximately 200 mm^3 were enrolled in the efficacy study. In general, a total of 10 animals per group were enrolled in efficacy studies.
An initial loading dose of 40 mg/kg was given for the first dose. […] For the duration of the studies, tumor volume was measured by calipering twice per week. Percent treatment/control (T/C) values were calculated using the following formula: […]
Body weight was measured twice per week and dose was body weight adjusted. The % change in body weight was calculated as (BWcurrent−BWinitial)/(BWinitial)×100. […]
All data were expressed as mean standard error of the mean (SEM). […]

Row | Molecule | inhibition of cellular HER3 activity [1] | inhibition of ligand driven tumor growth (BxPC3 tumors) | % T/C (BT-474 xenografts)
1 | MOR09824: anti-HER3 human antibody, IgG1/kappa; VH SEQ ID NO: 33, VL SEQ ID NO: 32 (antibody, V domains shown) VH: QVQLVESGGGLVQPGGSLRLSCAASGFTFSSYAMSWVRQAPGKGLEWVSVISAWGHVKYYADSVKGRFTISRDNSKNTLYLQMNSLRAEDTAVYYCARWGDEGFDIWGQGTLVTVSS VL: DIQMTQSPSSLSASVGDRVTITCRASQGISNWLAWYQQKPGKAPKLLIYGASSLQSGVPSRFSGSGSGTDFTLTISSLQPEDFAVYYCQQYSSFPTTFGQGTKVEIK | capable of inhibiting cellular HER3 activity |  | 
2 | MOR10701: anti-HER3 human antibody, IgG1/kappa; VH SEQ ID NO: 105, VL SEQ ID NO: 104 (antibody, V domains shown) VH: EVQLLESGGGLVQPGGSLRLSCAASGFTFSSYAMSWVRQAPGKGLEWVSVTGAVGRSTYYPDSVKGRFTISRDNSKNTLYLQMNSLRAEDTAVYYCARWGDEGFDIWGQGTLVTVSS VL: DIQMTQSPSSLSASVGDRVTITCRASQGISNWLAWYQQKPGKAPKLLIYGASSLQSGVPSRFSGSGSGTDFTLTISSLQPEDFATYYCQQYSSFPTTFGQGTKVEIK | capable of inhibiting cellular HER3 activity | very effectively inhibited ligand driven tumor growth | −50%
3 | MOR09974: anti-HER3 human antibody, IgG1/kappa; VH SEQ ID NO: 69, VL SEQ ID NO: 68 (antibody, V domains shown) VH: QVQLVESGGGLVQPGGSLRLSCAASGFTFSSYAMSWVRQAPGKGLEWVSVINPSGNFTNYADSVKGRFTISRDNSKNTLYLQMNSLRAEDTAVYYCARWGDEGFDIWGQGTLVTVSS VL: DIQMTQSPSSLSASVGDRVTITCRASQGISNWLAWYQQKPGKAPKLLIYGASSLQSGVPSRFSGSGSGTDFTLTISSLQPEDFAVYYCQQYSSFPTTFGQGTKVEIK | capable of inhibiting cellular HER3 activity |  | 
4 | MOR10702: anti-HER3 human antibody, IgG1/kappa; VH SEQ ID NO: 123, VL SEQ ID NO: 122 (antibody, V domains shown) VH: EVQLLESGGGLVQPGGSLRLSCAASGFTFSSYAMSWVRQAPGKGLEWVSVISAWGHVKYYADSVKGRFTISRDNSKNTLYLQMNSLRAEDTAVYYCARWGDEGFDIWGQGTLVTVSS VL: DIQMTQSPSSLSASVGDRVTITCRASQGISNWLAWYQQKPGKAPKLLIYGASSLQSGVPSRFSGSGSGTDFTLTISSLQPEDFATYYCQQYSSFPTTFGQGTKVEIK | capable of inhibiting cellular HER3 activity |  | 
5 | MOR12610: anti-HER3 human antibody, IgG1/kappa; VH SEQ ID NO: 375, VL SEQ ID NO: 374 (antibody, V domains shown) VH: QVQLVESGGGLVQPGGSLRLSCAASGFTFSSYAMSWVRQAPGKGLEWVSGTGPYGGTYYPDSVKGRFTISRDNSKNTLYLQMNSLRAEDTAVYYCARWGDEGFDIWGQGTLVTVSS VL: DIQMTQSPSSLSASVGDRVTITCRASQGISNWLAWYQQKPGKAPKLLIYGASSLQSGVPSRFSGSGSGTDFTLTISSLQPEDFAVYYCQQYSSFPTTFGQGTKVEIK | capable of inhibiting cellular HER3 activity |  | 
6 | MOR12609: anti-HER3 human antibody, IgG1/kappa; VH SEQ ID NO: 357, VL SEQ ID NO: 356 (antibody, V domains shown) VH: QVQLVESGGGLVQPGGSLRLSCAASGFTFSSYAMSWVRQAPGKGLEWVSVINGLGYTTFYADSVKGRFTISRDNSKNTLYLQMNSLRAEDTAVYYCARWGDEGFDIWGQGTLVTVSS VL: DIQMTQSPSSLSASVGDRVTITCRASQGISNWLAWYQQKPGKAPKLLIYGASSLQSGVPSRFSGSGSGTDFTLTISSLQPEDFAVYYCQQYSSFPTTFGQGTKVEIK | capable of inhibiting cellular HER3 activity |  | 
